Results as given in patent US20190071505A1 (UNIVERSITY OF NORTH TEXAS HEALTH SCIENCE CENTER, published 2019).

T1: NK cell inhibitory receptor NKRP1A (CD161) (human, UniProt Q12918 1-225)
T1 sequence (looked up): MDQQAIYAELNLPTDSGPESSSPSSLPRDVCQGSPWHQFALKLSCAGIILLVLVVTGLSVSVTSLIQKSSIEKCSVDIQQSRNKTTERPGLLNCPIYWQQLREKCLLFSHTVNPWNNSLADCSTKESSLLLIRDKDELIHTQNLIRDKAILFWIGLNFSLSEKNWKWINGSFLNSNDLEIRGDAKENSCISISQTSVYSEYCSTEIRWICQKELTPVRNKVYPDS

B1: Lectin-like transcript 1 (LLT1) (ligand)
chain: MHDSNNVEKDITPSELPANPGCLHSKEHSIKATLIWRLFFLIMFLTIIVCGMVAALSAIRANCHQEPSVCLQAACPESWIGFQRKCFYFSDDTKNWTSSQRFCDSQDADLAQVESFQELNFLLRYKGPSDHWIGLSREQGQPWKWINGTEWTRQFPILGAGECAYLNDKGASSARHYTERKWICSKSDIHV
B2: mouse anti-human LLT1 mAb (clone #2E5) (antibody, V domains shown)
VH: EVQLQQSGADLVKPGASVKLSCTASGFNIKDTYMHWVIQRPEQGLDWIGRIDPANGNTNYDPKFRAKATITADTSSNTAYLQLSSLTSDDTAVYYCAGMDYHFDFWGQGTTLTVSS
VL: DIVMTQSPATLSVTPGDRVSLSCRASQSISDYLHWYQQKSHESPRLLIKYASQSISGIPSRFSGSGSGSDFTLSINSVEPEDVGVFYCQNGHSFPLTFGAGTKLELRR
notes: Mouse monoclonal antibody from hybridoma 2E5; It was detected with a PE-conjugated goat anti-mouse IgG secondary antibody; also called 2E5 mAb

How the values were obtained:
[1] = target: T1, NK cell inhibitory receptor NKRP1A …; experiment: cell-based or functional assay
[2] = target: B1; experiment: flow cytometry on DU145 cells (endogenous LLT1), PE goat anti-mouse IgG secondary, ratio to mIgG1 isotype control; clone taken from the FIG. 2 legend
[3] = target: B1; experiment: flow cytometry on 22Rv1 cells (endogenous LLT1), PE goat anti-mouse IgG secondary, ratio to mIgG1 isotype control; clone taken from the FIG. 2 legend

Binder: B1
- percent of MDA-MB-436 LLT1 siRNA-transfected cells killed by NK cells, 5:1 E:T ratio (51Cr release) [1]: 21.8%
- percent of MDA-MB-436 LLT1 siRNA-transfected cells killed by NK cells, 25:1 E:T ratio (51Cr release) [1]: 63.4%
- percent of MDA-MB-436 scramble siRNA-transfected cells killed by NK cells, 5:1 E:T ratio (51Cr release) [1]: 18.9%
- percent of MDA-MB-436 scramble siRNA-transfected cells killed by NK cells, 25:1 E:T ratio (51Cr release) [1]: 42.2%

Binder: B2
- MFIR (mean fluorescence intensity ratio) [2]: 12
- MFIR (mean fluorescence intensity ratio) [3]: 14.4
